Experimental data from the supplement of paper PMC10567573.

B1: KCNA3 (parent)
chain: YQSGGRIRRPVNVPIDIFSEEIRF
B2: TSN (parent)
chain: AFVVYLETETLVTREAVTEILGIE

Variants of: B1
Assay: protein stability index of a GFP-peptide fusion (GPS, HEK-293T) (PSI 1-6); higher = more stable
Settings: c terminus: a fixed tail appended
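Note: lentivirally expressed fusions sorted by FACS into six bins by GFP to DsRed ratio, PSI derived from sequencing read proportions per bin multiplied by bin number.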

Protein stability index of substitutions, site by site:
R23: C 1.23, D 3, P 1.97, N 1.77, Q 1.72, H 2.37, F 1.53, E 2.19, L 1.28, A 2.29, V 1.68, W 1.05, K 2.3, T 1.62, M 1.67
F24: I 2.47, M 2.52, Q 2.31, R 2.38, L 2.37, K 1.94, C 2.32, D 2.1, S 2.4, G 1.62, A 2.53, T 2.52, N 3.24, W 1.66, V 2.42, P 2.26, H 2.4
I22: K 2.31, S 2.29, N 2.82, T 2.2, H 2.71, M 2.29, P 1.98, V 3.48, Y 1.8, D 2.5, L 2.06, R 2.68, F 1.69, Q 2.86, G 1.68

Variants of: B2
Assay: as above
Settings: c terminus: a fixed tail appended

Protein stability index: each site, then its substitutions
E24: G 2.84, K 3.34, D 2.34, I 3.19, V 2.23, W 1.53, A 3.43, R 2.27, S 2.53, F 2.03, C 3.31
V3: E 1.9, L 2.35, Q 2.75, R 1.34, G 1.67, Y 2.86, F 1.99, M 1.97, S 1.15, K 1.81, P 2.89, T 3.95, A 2.32, H 2.3, N 2.37
T8: A 2.27, Y 1.7, K 2.53, I 2.34, V 2.41, H 3.17, R 4.36, C 2.57, D 1.94, N 3.62, E 1.4, G 2.1, S 2.93, Q 2.06
I23: Q 1.69, H 2.75, W 1.79, N 3.34, F 2.36, K 1.55, E 2.03, Y 3.36, C 1.7, L 2.26, T 1.79, V 3.69
E15: I 3.25, C 1.97, H 1.85, F 3.13, V 3.11, M 3.51, Y 2.25, L 2.17, S 2.65
V17: H 2.62, A 2.01, P 3.55, Y 3.6, Q 3.14, T 3.01, D 2.61, M 4.75, E 1.4, G 2.21
G22: E 2.82, K 1.74, F 3.47, P 2.86, V 2.04, D 3.2, R 3.49, N 2.33, A 3.71, Y 3.71, S 1.86
I20: E 1.28, Y 1.56, Q 5.44, M 3.81, K 2.91, L 4.11, R 3.48, N 1.98, D 1.6, W 2.75, F 3.74
E9: I 2.44, N 3.46, S 2.9, G 3.65, D 3.4, L 1.46, A 2.65, R 1.65, M 2.42, C 2.38, W 3.68
V4: P 2.66, C 2.2, S 1.57, Y 2.61, H 2.19, A 2.54, Q 1.36, E 2.07, G 2.53, L 2.21, D 2.41
A1: D 1.74, H 2.54, N 3.19, S 2.71, L 3.38, I 3.49, Q 2.11, F 3.77, E 3.39, R 4.12, M 2.61, T 2.55, P 2.44, W 2.42, K 2.54
A16: W 3.37, F 3.01, C 3.53, P 3.89, V 3.75, Q 2.67, M 2.01, D 1.97, N 1.96, S 3.05
T13: E 1.06, H 2.05, D 1.81, N 1.72, W 1.62, Y 3.33, I 1.31, K 1.63, V 2.31, M 3.48, G 2.1, A 2.44, R 3.01, F 3.68
L11: N 2.14, E 1.73, R 2.65, D 2.34, M 3.03, Q 3.4, S 2.48, W 2.15, A 2.69, H 3.08
F2: V 1, W 1.84, Q 1.86, D 3.68, E 2.49, P 3.41, K 1.78, A 1.97, M 2.88, S 2.36, Y 2.83, G 1.88, T 2.74, L 2.25
V12: E 2.35, T 4.69, D 4.41, R 2.51, N 2.9, L 2.56, Y 2.53, P 1.74, I 3.19, Q 1.94, A 3.16, M 3.5
L6: I 3.08, F 3.12, H 1.37, V 4.67, T 2.05, C 2.38, A 1.34, S 1.83, P 1.85, E 2.25, Q 1.84, R 1.24, Y 2.2, D 2
E7: P 2.19, D 3.68, H 3.41, C 1.79, I 3.57, G 2.77, S 1.76, T 2.4, W 3.69, A 3.23, K 2.63, Y 2.77, Q 3.51, L 2.42
T18: Q 3.84, L 2.24, F 2.48, H 4.07, A 2.74, E 3.46, G 1.49
R14: D 2.33, T 2.48, C 3.25, S 1.54, P 2.84, M 4.2, Y 2.01, F 2.36, A 3.41, N 4.51, K 4.19, H 3.6, E 1.43
Y5: G 2.5, H 1.59, Q 1.91, C 2.94, E 2.73, N 2.13, S 1.77, V 3.44, F 1.99, A 2, T 3.32, R 2.97, K 1.14, L 2.45, D 2.68, P 2.87
E19: R 3.43, F 2.17, H 2.31, W 2.4, N 3.7, K 3.64, V 3.19, I 2.11, S 1.96, Q 3.48
T10: C 2.82, K 3.37, Q 1.68, L 2.29, E 1.39, M 1.36, H 2.83, D 2.79, A 1.65, S 2.76, P 2.45, V 2.5, R 2.22
L21: C 2.36, P 2.34, A 3.48, E 1.97, S 2.04, G 2.44, N 2.64, I 2.57, W 2.52, Y 2.1
